# Data: the domain aggregation screens of Martell et al. (2025)
# Test: soluble fraction after stress (log2 fold change); higher = more stays soluble; pooled small domains, quantitative proteomics
# Conditions: stress: 75 degC
# 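Further: 20 min heating vs room temperature control held 20 min.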
row,Sequence,soluble fraction (log2)
1,HMGPNYYDILEIPTDASPSEITQAFRKKALEWHPDKNPNNLEEATSRFIEIVEAYRVLSSKDSKLQYDTG,-0.213
2,HMGPSVGMTVGEMERDLIFRTLETVGDNRTKAADMLGISIRTLRNKLNEYREAGFEWPRKAG,-0.223
3,HMGQAVTMLKAGRLLANAKGTGAPVRSLEPGMLLYPTGVKEGTMWEVEDEMGNKGWVNSTLMETA,-0.6
4,HMGQAVTVPELKGLSFDEAIEKLDDAGLKYEVVDSNYVEDMKPGTVFETLPEAGSRVKPRRIVFLTINAF,-0.257
5,HMGQDTTIVVRRGESLLGIAARLLPATDFYTTGELAEGIRTASGMENDRLIPGQTLRVPLNSG,-0.24
6,HMGQGEISVPRLEGLSLRETSELLGLFGLRLEAAGSGIALSQNPPAGARVKAGDVIQVDFGEPGN,0.0756
7,HMGQHSAELKLHPQDLGQVTISMKVEDNQAQLQMVSGHGHVRAALEAALPQLRSQLADSGIQLTQSSIS,-0.198
8,HMGQISDEETLKTVASRIIDANPDEARKYRSGKTGLLGFFVGQVMKATQGEANPKLASRIVKELLE,-0.15
9,HMGQLIVTIPNFERRPAEQAIQKLEELGLVPEEKQIYHDDIPAGSVIYTDPSKDSQVNAGTKVYVYVSLG,-0.311
10,HMGQMGHAVVAKTDLAVGTPLTRDLVAVREVPVEWLHSSAITPEQFERAAGAVLAQPARGGEPLVWSQLEE,0.111
11,HMGQPRPLTAEDFDFLSDDEIAEMRKALSNGEMLRLRELIAQIGEKRPFLAERLLVLAKQYNYEDLSRLLE,-0.472
12,HMGQQPPVTEIYKNHDGNKDGLLEAGEVTGSRYARQFPRWDVNGDQKVSPQEVIAFRKRFGIAADGTLL,0.0193
13,HMGQQTVEPLSRRELEVLSLLAKGLSNQQIADRLVISVRTVKKHVENIHGKLGVQSRTQAVARARELGLV,-1.24
14,HMGQTYTITINPTPADAKVIIDGVATNSVEAIDGRTLIWSVSKPGYLTKSGNYTVTGKNETLNIVLKEDPD,0.163
15,HMGQVLEGVFRRKANGKNAFIPDGGGEPILVAERNSAHAMDGDRVKATLLARRKHHVREAQVTEILKRSSK,-0.258
16,HMGQVSDENQLNKVIDEVIKNYPIQVEQFKAGKEPILQFLKGMVMKATEGSADPAVAEKLLRKKL,0.0979
17,HMGQYLDAATVAAVYHAYHARNWTQATLAKELKVARPTLSNVLNGREAPSVELAARIRAFLGSPEP,-3.16
18,HMGRAAEETETFRTQGELDARIKELQGQMRDAAANLEFERAAGLRDTLKRLRTRGLGLSASP,0.0633
19,HMGRENGTVKWFNTSKGFGFITRDDGGDVFVHFRSIQGEGHRALQEGQRVSYVVANRDKGLQAEDVTILN,-0.277
20,HMGRKRLADYGLNDTEQKIVRKIADGLSNREIAQALYLSEGTVKNYITDILGKLELRDRTQIAIFYLREIG,-0.941
21,HMGRLTTKIVLYDRIENIVPERRKELVADIEKRIGVKVEVLEIGHVDFVRDAAWLKVSYYLAPGE,-2.21
22,HMGRNSTPKEPLKKFEVSPITEKEVRILDGRFGPYITDGATNVTVPKTITIEEITFERALDMLAEKAAKGP,0.0521
23,HMGRPQISDELRNAIIEVAKDNRDWGYIRIQGQLKYLGYRVSTATIGKVLKKAGLEPQPDRRRK,-1.92
24,HMGRPWRIGDVVNVSRPTGDGGGFTKGLITRIYPTTVQVTWNPDLQHARPWTTMEKKQYLIFVYHDDE,-3.09
25,HMGRQTITLPDFSGQDLEQVKARLTEWGLVPEEKSVFSDSVPLGSVVRTVPAEGDEVSVGDTVTVYKSLGR,0.19
26,HMGRRDLSWQPAAGGVSIDGLKAGEAWTLFGLNGRILKQGYAPEGQMSLAVNAGLFVLRGAESGVIRIAVA,-1.38
27,HMGRSYTIKSGDTLWAIATRYYGNGAQYSKIYNANKGTIESVAKSRGFRSSQNGHWIFPGTSITI,-0.722
28,HMGRTITVGIAEDADIKDIAKMLEEKGLISDYRLFVVQELLSAQHDKIKPGIYDLSTDMKAEEMLEILAG,-0.248
29,HMGRTKEEIFNILKERIVTLQYEPGKILNEIELSEEFEVSRTPIRTVFQQLEAVKLVSIVPRYGVQVA,-1.15
30,HMGRYATVPDVVGSTPEVARELIRSEGLRYVLSEETVYSDSDTGTVGRTDPESGTRMSADDEVVVYLS,0.0649
